Measurements from patent publication US20260185137A1, “FRET Active E2-UBL Conjugates and Uses Thereof” (Board of Regents, The University of Texas System, priority 2021, published 2026).

What was measured:
TRIM5α RING domain = target: T1, TRIM5α RING domain (Macaca mulatta, UniProt Q0PF16); experiment: 15N HSQC NMR spectroscopy of RING constructs (dimer-monomer exchange); set-up: species or system rhesus monkey; details: NMR time scale, 298K
T1 construct: The R1 constructs encompass residues 2-90 of rhesus monkey TRIM5α; 6His (N, cleaved yes); GB1 solubility tag (N, cleaved yes); made in house; host or cells: bacteria
Procedure: We then collected series of ^15N HSQC spectra by gradually decreasing protein concentration of the R1-WT sample from […] to 10 μM. As the concentration of the sample was lowered one set of peaks became progressively weaker whereas a new set of peaks appeared and became dominant (FIG. 2A and FIG. 2B). […] The findings confirmed that the R1-WT construct exists in a dimer-monomer equilibrium and that the two distinct sets of NMR signals present at high and low concentrations correspond to the dimeric and monomeric states of the protein, respectively.
NMR spectroscopy. All NMR experiments were performed in 50 mM Sodium Phosphate (pH 7.5), 150 mM NaCl, 1 mM TCEP, 10% (v/v) D2O, 0.04% (w/v) NaN3, and the data collected at 298K on a Bruker Avance 700-MHz spectrometer equipped with a cryoprobe. Backbone assignments were carried out using standard TROSY triple resonance NMR experiments (HNCO, HN(CA)CO, HN(CO)CA, HNCA, HNCACB, and HN(CO)CACB). Protein concentrations for each experiment are shown in the corresponding figures or noted in figure legends. The NMR data were processed using NMRPipe and spectra evaluated using NMRFAM-Sparky.

UBE2N/V2-Ub conjugate = target: T2, UBE2N/V2-Ub conjugate (Homo sapiens, UniProt P61088); experiment: FRET ubiquitin discharge assay, UBE2N/V2-Ub conjugate; type: biochemical; details: per RING monomer; room temperature
T2 construct: made in house; host or cells: bacteria
Description: To evaluate contributions of distinct RING oligomeric states to TRIM5α autoubiquitination we investigated the catalytic activity of the RING constructs. E3 ubiquitin ligases catalyze the transfer of ubiquitin from the high-energy thioester-linked E2-Ub conjugates onto an amine group of the substrate. One of the challenges in the mechanistic studies of E3 ligases is the difficulty of measuring rates of chemical transformations catalyzed by E3 ligases with sufficient precision. In this study we developed a FRET-based ubiquitin discharge assay that allows continuous, real-time measurement of E3-catalyzed ubiquitin release from E2-Ub conjugates present at nanomolar concentrations in multiple samples in parallel using a fluorescence plate reader (FIG. 3A). […] FRET signals of the E2-Ub conjugates were recorded as a function of time following addition of different RING constructs using AF488 excitation (485/20 nm) and AF594 emission (645/40 nm) bandpass filters. We observed that more than 40% of the total fluorescence signal decayed in a RING-dependent fashion and could, therefore, be attributed to the FRET signal of the conjugate. The outstanding sensitivity, signal-to-noise and throughput of the FRET decay measurements enabled robust and accurate quantification of ubiquitin discharge. […]

T2 sequence (P61088 whole entry, other chains not shown): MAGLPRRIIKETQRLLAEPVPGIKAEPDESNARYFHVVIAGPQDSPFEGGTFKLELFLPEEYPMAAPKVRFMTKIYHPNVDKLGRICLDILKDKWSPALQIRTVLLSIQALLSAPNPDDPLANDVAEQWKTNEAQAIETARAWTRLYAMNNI
T2 sequence (Q15819 whole entry partner, other chains not shown): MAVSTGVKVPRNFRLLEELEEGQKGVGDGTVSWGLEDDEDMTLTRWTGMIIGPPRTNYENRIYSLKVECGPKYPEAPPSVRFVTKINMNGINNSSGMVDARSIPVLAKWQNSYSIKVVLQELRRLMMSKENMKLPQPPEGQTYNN

| Molecule | dimer-monomer exchange rate (TRIM5α RING domain) [Hz] | E3 activity (kcat/Km, initial slopes of Michaelis-Menten curves), ubiquitin discharge from UBE2N/V2-Ub conjugate (UBE2N/V2-Ub conjugate) |
| --- | --- | --- |
| R1-WT: isolated RING monomer construct, residues 2-89 of the rhesus TRIM5α (protein) ASGILLNVKEEVTCPICLELLTEPLSLHCGHSFCQACITANHKKSMLYKEGERSCPVCRISYQPENIQPNRHVANIVEKLREVKLSPEE | < 10 | – |
| R2-WT: tandem RING dimer; R82 of first RING linked to A2 of second through Gly-Ser linker (protein) ASGILLNVKEEVTCPICLELLTEPLSLHCGHSFCQACITANHKKSMLYKEGERSCPVCRISYQPENIQPNRHVANIVEKLRGSASGILLNVKEEVTCPICLELLTEPLSLHCGHSFCQACITANHKKSMLYKEGERSCPVCRISYQPENIQPNRHVANIVEKLREVKLSPEEGQ | – | significantly higher than that of the R1-WT |
